Usually IC50 stands for the point on the concentration scale where inhibition reaches its midpoint.

Among the targets are HLA-A*31:01; HLA-A*33:01; HLA-A*03:01; HLA-A*30:01; HLA-A*11:01; HLA-A*68:01.
Assay in all cases: IEDB peptide-MHC binding, purified MHC/competitive/radioactivity; ≥ and ≤ were set here for values at or beyond the usual limits of such assays
Settings in all cases: source organism: Homo sapiens

EVYEGVWKK: the IC50 was at least 70000 nM with HLA-A*31:01; 60 nM with HLA-A*33:01; 1070 nM in the assay with HLA-A*03:01; at least 70000 nM with HLA-A*30:01; 63 nM with HLA-A*11:01; 10 nM in the assay with HLA-A*68:01.

Regarding KLGGGQYGE, the half-inhibitory concentration (IC50) with HLA-A*31:01 is 9870 nM; with HLA-A*33:01, 63600 nM; with HLA-A*03:01, 2280 nM; with HLA-A*30:01, 10100 nM; with HLA-A*11:01, 2280 nM; in the assay with HLA-A*68:01, 4200 nM.

Source of the values: the Immune Epitope Database (IEDB).
